The values below come from IntAct's records for PubMed 26751287.

B1: Transmembrane glycoprotein NMB (Homo sapiens), Q14956-1 (parent)
chain: MECLYYFLGFLLLAARLPLDAAKRFHDVLGNERPSAYMREHNQLNGWSSDENDWNEKLYPVWKRGDMRWKNSWKGGRVQAVLTSDSPALVGSNITFAVNLIFPRCQKEDANGNIVYEKNCRNEAGLSADPYVYNWTAWSEDSDGENGTGQSHHNVFPDGKPFPHHPGWRRWNFIYVFHTLGQYFQKLGRCSVRVSVNTANVTLGPQLMEVTVYRRHGRAYVPIAQVKDVYVVTDQIPVFVTMFQKNDRNSSDETFLKDLPIMFDVLIHDPSHFLNYSTINYKWSFGDNTGLFVSTNHTVNHTYVLNGTFSLNLTVKAAAPGPCPPPPPPPRPSKPTPSLATTLKSYDSNTPGPAGDNPLELSRIPDENCQINRYGHFQATITIVEGILEVNIIQMTDVLMPVPWPESSLIDFVVTCQGSIPTEVCTIISDPTCEITQNTVCSPVDVDEMCLLTVRRTFNGSGTYCVNLTLGDDTSLALTSTLISVPDRDPASPLRMANSALISVGCLAIFVTVISLLVYKKHKEYNPIENSPGNVVRSKGLSVFLNRAKAVFFPGNQEKDPLLKNQEFKGVS

The variants in the assay derive from B1. As to conditions: with ptk6_human PTK6, Q13882.
As to MECLYYFLGFLLLAARLPLDAAKRFHDVLGNERPSAYMREHNQLNGWSSDENDWNEKLYPVWKRGDMRWKNSWKGGRVQAVLTSDSPALVGSNITFAVNLIFPRCQKEDANGNIVYEKNCRNEAGLSADPYVYNWTAWSEDSDGENGTGQSHHNVFPDGKPFPHHPGWRRWNFIYVFHTLGQYFQKLGRCSVRVSVNTANVTLGPQLMEVTVYRRHGRAYVPIAQVKDVYVVTDQIPVFVTMFQKNDRNSSDETFLKDLPIMFDVLIHDPSHFLNYSTINYKWSFGDNTGLFVSTNHTVNHTYVLNGTFSLNLTVKAAAPGPCPPPPPPPRPSKPTPSLATTLKSYDSNTPGPAGDNPLELSRIPDENCQINRYGHFQATITIVEGILEVNIIQMTDVLMPVPWPESSLIDFVVTCQGSIPTEVCTIISDPTCEITQNTVCSPVDVDEMCLLTVRRTFNGSGTYCVNLTLGDDTSLALTSTLISVPDRDPASPLRMANSALISVGCLAIFVTVISLLVYKKHKEFNPIENSPGNVVRSKGLSVFLNRAKAVFFPGNQEKDPLLKNQEFKGVS [Y525F], the “effect of a mutation on the interaction” value was “disrupting interaction strength”.
